± gives the standard deviation of the averaged measurements.
B1: library; a variant is named by its letters at N, in order (parent)
chain: GCUGUCACCGAGAAACUGUGAAGUAUAUCUUAAACCUGGGCACUUAAAAGAUAUAUGGAGUUAGUAGUGCAACCUGCUCGGUCUGAUGAGUCCNNNNNNGGACGAAACAGC

Legend:
cyclic di-GMP [1] = variants of: B1; experiment: FACS-Seq fitted mean relative fluorescence mCherry/BFP without ligand (log10 relative fluorescence); HEK293T; ligand: cyclic di-GMP (c-di-GMP-II aptamer); higher = higher reporter protein expression; conditions: ligand present: no
Method in brief: (§1)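 Sorting into 6 bins by mCherry/BFP followed 48 h of incubation with or without ligand. The cells were enriched HEK293T libraries lentivirally bearing an mCherry reporter with the ribozyme switch and an EF1α-BFP marker, and bin genomic DNA was PCR-amplified, barcoded and sequenced on MiSeq. Fluorescence is the fitted normal mean of the bin counts. Means were fitted on log10(mCherry/BFP), scaled to five spiked-in control ribozymes.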

cyclic di-GMP [2] = variants of: B1; experiment: normalized RNA/DNA level without ligand (relative to sTRSVctl = 100) (log10 (% of sTRSVctl)); HEK293T; ligand: cyclic di-GMP (c-di-GMP-II aptamer); higher = less ribozyme self-cleavage, higher mRNA level; conditions: reporter: mCherry (pCS4076), ligand present: no
Method in brief: (§2)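 Ribozyme switch library plasmids with mCherry reporters (eGFP in certain ligand experiments) went into HEK293T cells at 4 µg per 6-well well. Where ligand was used, it was applied 1 h before transfection, and total RNA was extracted with EDTA 72 h later for reverse transcription, amplification, barcoding and sequencing. RNA level is the RNA-to-DNA read ratio normalized to a spiked-in non-cleaving sequence or to the leading sequences, then scaled and log-transformed. Scaling was ×100 with log10, the leading set comprised 25 sequences, and the cutoff was ≥100 DNA reads.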

cyclic di-GMP [3] = variants of: B1; experiment: FACS-Seq fitted mean relative fluorescence mCherry/BFP with ligand (log10 relative fluorescence); HEK293T; ligand: cyclic di-GMP (c-di-GMP-II aptamer); ligand concentration (+) FACS-Seq: 1 mM; higher = higher reporter protein expression; conditions: ligand present: yes
Method in brief: as §1

cyclic di-GMP [4] = variants of: B1; experiment: normalized RNA/DNA level with ligand (relative to sTRSVctl = 100) (log10 (% of sTRSVctl)); HEK293T; ligand: cyclic di-GMP (c-di-GMP-II aptamer); ligand concentration (+) RNA-Seq: 1 mM; higher = less ribozyme self-cleavage, higher mRNA level; conditions: reporter: mCherry (pCS4076), ligand present: yes
Method in brief: as §2

Row | Variant | FACS-Seq fitted mean (log10) (cyclic di-GMP [1]) | normalized RNA/DNA level without ligand (log10) (cyclic di-GMP [2]) | FACS-Seq fitted mean (log10) (cyclic di-GMP [3]) | normalized RNA/DNA level with ligand (log10) (cyclic di-GMP [4])
1 | ACUCUU | -0.426 ± 0.095 | 1.636 ± 0.0073 | -0.112 ± 0.0059 | 1.83 ± 0.11
2 | UCGGUA | -0.583 ± 0.023 | 1.31 ± 0.18 | -0.2658 ± 0.00058 | 1.52 ± 0.054
3 | UCGGUC | -0.238 ± 0.16 | 1.675 ± 0.0093 | 0.0705 ± 0.033 | 1.83 ± 0.1
4 | ACGGGA | -0.467 ± 0.019 | 1.42 ± 0.16 | -0.161 ± 0.068 | 1.58 ± 0.075
5 | GCUAAU | -0.207 ± 0.11 | 1.56 ± 0.049 | 0.146 ± 0.04 | 1.74 ± 0.078
6 | GCGCUA | -0.702 ± 0.086 | 1.65 ± 0.043 | -0.433 ± 0.079 | 1.78 ± 0.17
7 | GCGCUC | 0.151 ± 0.12 | 1.45 ± 0.13 | 0.324 ± 0.017 | 1.62 ± 0.17
8 | UCGUAC | 0.087 ± 0.015 | 1.653 ± 0.01 | 0.277 ± 0.023 | 1.81 ± 0.14
9 | ACUACA | -0.0979 ± 0.082 | 1.55 ± 0.03 | 0.212 ± 0.16 | 1.73 ± 0.11
10 | ACUGAA | -0.493 ± 0.087 | 1.43 ± 0.09 | -0.161 ± 0.014 | 1.64 ± 0.074
11 | ACUGAU | -0.368 ± 0.075 | 1.43 ± 0.11 | -0.128 ± 0.13 | 1.62 ± 0.11
12 | GCGGAC | -0.751 ± 0.049 | 1.33 ± 0.11 | -0.511 ± 0.04 | 1.46 ± 0.045
13 | GCGGAG | -0.301 ± 0.022 | 1.53 ± 0.13 | -0.076 ± 0.067 | 1.7 ± 0.055
14 | GCGGAA | -0.527 ± 0.013 | 1.33 ± 0.21 | -0.19 ± 0.061 | 1.54 ± 0.1
15 | GCGUAG | -0.637 ± 0.047 | 1.67 ± 0.074 | -0.348 ± 0.095 | 1.8 ± 0.085
16 | GCGUAU | -0.304 ± 0.056 | 1.48 ± 0.043 | 0.0112 ± 0.012 | 1.72 ± 0.12
17 | UCGCCA | 0.132 ± 0.027 | 1.71 ± 0.032 | 0.335 ± 0.037 | 1.88 ± 0.073
18 | UCGGAU | -0.57 ± 0.024 | 1.43 ± 0.097 | -0.239 ± 0.0084 | 1.68 ± 0.06

Row | Variant | FACS-Seq fitted mean (log10) (cyclic di-GMP [1]) | normalized RNA/DNA level without ligand (log10) (cyclic di-GMP [2]) | FACS-Seq fitted mean (log10) (cyclic di-GMP [3]) | normalized RNA/DNA level with ligand (log10) (cyclic di-GMP [4])
19 | UCGGAG | -0.311 ± 0.011 | 1.54 ± 0.088 | 0.0865 ± 0.03 | 1.72 ± 0.08
20 | UCGGAA | -0.484 ± 0.069 | 1.34 ± 0.14 | -0.286 ± 0.048 | 1.49 ± 0.11
21 | UCCUCG | 0.369 ± 0.066 | 1.797 ± 0.0034 | 0.448 ± 0.0052 | 1.91 ± 0.074
22 | UCCUCC | -0.766 ± 0.014 | 1.81 ± 0.047 | -0.515 ± 0.021 | 1.91 ± 0.17
23 | ACGAAA | -0.618 ± 0.032 | 1.35 ± 0.1 | -0.313 ± 0.013 | 1.52 ± 0.11
24 | ACGAAG | -0.359 ± 0.056 | 1.42 ± 0.13 | 0.0516 ± 0.11 | 1.63 ± 0.088
25 | CCGGUG | -0.614 ± 0.039 | 1.27 ± 0.12 | -0.397 ± 0.038 | 1.46 ± 0.11
26 | CCGGUU | -0.109 ± 0.11 | 1.592 ± 0.0094 | 0.264 ± 0.0069 | 1.78 ± 0.096
27 | CCGGUA | -0.505 ± 0.068 | 1.36 ± 0.12 | -0.223 ± 0.059 | 1.61 ± 0.087
28 | ACUCAG | -0.836 ± 0.044 | 1.61 ± 0.031 | -0.677 ± 0.16 | 1.77 ± 0.1
29 | CCUGUA | -0.428 ± 0.0045 | 1.54 ± 0.15 | -0.0267 ± 0.0096 | 1.73 ± 0.077
30 | CCGAUG | -0.912 ± 0.22 | 1.09 ± 0.038 | -0.634 ± 0.095 | 1.32 ± 0.16
31 | CCCGUA | -0.351 ± 0.12 | 1.55 ± 0.067 | -0.0502 ± 0.012 | 1.72 ± 0.055
32 | CCCGUC | -0.648 ± 0.28 | 1.73 ± 0.061 | -0.317 ± 0.1 | 1.87 ± 0.16
33 | ACGUAA | -0.0329 ± 0.12 | 1.43 ± 0.079 | 0.314 ± 0.082 | 1.63 ± 0.087
34 | ACGUAU | -0.637 ± 0.067 | 1.34 ± 0.1 | -0.336 ± 0.0036 | 1.54 ± 0.036
35 | CCUGCC | -0.367 ± 0.12 | 1.79 ± 0.018 | -0.0275 ± 0.059 | 1.89 ± 0.052
36 | CCGUUG | -0.483 ± 0.093 | 1.28 ± 0.069 | -0.2456 ± 0.00076 | 1.49 ± 0.1

— the supplement of paper PMC6757056
